Experimental data: a protein production outcome set (Wang et al. 2014)

Experiment: label from the status in PepcDB records
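Further: failed if final PepcDB status was selected cloned or expressed and not failed if soluble or beyond.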

Sequence	protein production
MGGRIASLLLDELHASTTVAAGVCLGYPFHPLGKPAQLRTHHLIDLSAPCLIFQGERDAMGRQDEVEVYSMSSAVTLQWIPDGDHSFSPRKRSGRTEEQNLCLAVQHVHSFLDSV	failed
MQADPAIRRFAKKRNKRVDRMILDSNYMHTSIDRYFPNESKRRGRPDIIYLLLEMTQESILNHKNQLRTYVHTRNNQVIRISPITRMPKSYNRFIGLFEDLFEKRIITNNGKELLSMEESSLGDLINSIRRDRTILLHPKGEMRKPSEFISNANILIVIGGFSEGDFISDTSFINERYAIFDQELTIWSVANEMVANYERAVGLTLEHHHHHH	not failed
MTRLNELWELYFQTLDKSTSWTFTKESFYNRYLKEPLGKKKLDSIQEHHIMAIIRHLQAEGMATRTVNTTLEILRPLFDFAIKNKALRDNPTRFIVLKKDNLEHHHHHH	failed
MGTLGRAIYTVGNWIRGTGQALDRVGSLLQGSHRIEEHLSRHRTLMNVFDKSPLVDKDVFVAPSASVIGDVQIGKGSSIWYGCVLRGDVNNISVGSGTNIQDNTLVHVAKTNISGKVLPTLIGDNVTVGHSAVIHGCTVEDDAFVGMGATLLDGVVVEKHAMVAAGSLVKQNTRIPSGEVWGGNPAKFMRKLTDEEIVYISQSAKNYINLAQIHASENSKSFEQIEVERALRKKYARKDEDYDSMLGITRETPPELILPDNVLPGGKPVAKVPSTQYF	failed
MKWRYSPKTSNYCFIVGGFFLFLPILMYGWGHFRRPPRSENQQELFRGIVYQRLIESKPRPLIIHIVTIDLNTPGIKPFITPDIENLSKNVGVGKQAIIDNETKARTTSEFVAEFQVKLAINGSYFYPFKEVTPWHYYPHSGDTTKVLGQTISNGKIYANKKSSWYVLCFDNNNQAQIPGGEECPKNTIQGLAGDDVLVFQGKPKINIYANSSADKPYSRVVAAIDKTGKKLWLVLVDGKQPLYSEGFTKRELTQFIAKLGVYNAINLDGGGSTTLVVANPDKEGKPKILNAPTHTKILMRDRPVANHLGFYAD	failed
MPPLRQTKTWVDRNGSAHVELSPTVPPQTPKRHMRIQSPMEISWSEAVREGGEHSARRCGDMAVSALAKPNPIIDDDPEGNPDVCMYTWIVECPGATAVLLWINGVFDHERIEESEMTRLEGSDLWILSLRMPSDWRASYTVNAWSGDGVAPWREAGDRMHIRKAAMSGGRPDSRAMGHIMDSSLVEGPDALPDCWVAASTSVKVVEETVAGEHFWFYEAPVKAPLLVLFDGQHWNNSMNLPAQVDAAIAIGLLPPVSLLMIDSVNTERRWDSVGVPGGQVDVLIDALLPHVRETYNVSARGEDTIVTGASFGGLASLWALALSDGEVGHAIAQSPSLWRFNVADALSAAEQWSSIHLQAGKYEGEMLRLSHQLAEDLSGDIREVRVRGVHGGHDWAWWRVHMLTELTRLLKTL	failed
MILNPQQRTKLDSRRDDLFYAAPRFVTHVDDFFLARLTDLYRQYLQPQMRVLDLMSSWVSHLPPELSFQEVVGHGMNAAELARNPRLDRYFVQNLNEELALPLEDASFNAVLMAVSVQYLQYPEATFTEIARILKPQGVVIVSFSNRMFFEKAIQAWREGSEGDRVQLVQTYINSTPSLKVIATHLPRLWPWRGFTDPFYAVVGQKQAVLEHHHHHH	not failed
MWNYQKNILVCMIAGLGLSTCTPSDVSIPGAATIDVMNGFPDGESGYALGVSGCYAGKLGDFLLMAGGCNFPDKPVSEGGIKHYYKGIYIARVDDSSSLRWVKAGELPMEAAYGATVSLPDRLIFIGGSNSSDRFSSVLSFSFDCMKDSGLICETLPPLPHAVDNMSATLLGDTLYVLGGNRNGIPSSSMFSLCLDNYSAGWTEVPFPGRPRVQPVCSSLLGKLYVFGGFTSGGDASVSTDGLCYHPESGQWQVVKAPLTTKGEPLTLTGGASVSYGDVLLICAGGVNRDIFEDAISARYQMVRESEYLLQPIEWYRFNDQLLAYNVRSGEWIRIGVPSPMLARAGSSLVVFGDILFYIGGELKPGVRTPGICRISLQK	failed
MTHTTANQVIHYVDQDGNTVFDDNDSQTLDYERSVTIDEVTGEITAYGDWKAVDGDEFGSVTSSDKPGYAIDKPVVSGEKPTITNGKDGKVSDVEVTVTYTALEHHHHHH	not failed
MTYLQTTADFYAEVAQTPEVGLCCVQSSPLQLPGLVIPAVMQEMNYGCGSTVHPNELGNKSKVLYVGVGGGLEALQFAYFCRQPGAVIAVDPVEAMRQAAQRNLQLAAEKNDWFSVDFVDIRAGDAFTLPVPDNSVDVVAQNCLFNIFEPEDLSRALKEAYRVLKPHGRLIMSDPIAARPIPQHLRQDERLRAMCLSGALTYAEYIQHLIDTGFGQIEIRARRPYRLLDSVTYKLDENLLLESLDSVSFKVPIPSDGACVFTGKTAIYAGSDPLFDDQAGHILQQGVPSAVCDKTALNLGSTYPNKILITDSTWYYDGGGCC	failed
MRVARLFRFPVKGFPAEEIPEADVRTGRGIRGDRVAAFTNGSLDIPDDSWHRYSAFTVLKNDTDLQKWQVELDLAEAADSSQPAVADPSATVTLTSPQNETTTFRTDDRDTRATSADFLSARIPPQGDFPRALSVADQGMFDSQAAGVSIINPATVAAISQTADGQAALAPGETELDPLRFRGNVLVDGLAPFEEFALIGKIVRLGGVRLAITQAIERCPATTVNPTTTAVDVNVPRVLASACGHLHCGVYGRILESGLVSTGDEIEIEGDAPRELVKTARTPRFMTVLGSQQICNDIVEVSLRDDQGWIREFDEPGTNLRVHLDLGEPFWRTYTITDVSDDIVSIAVRTQGKGSRAVAELAAGQSVLASGPHGTMTANRVFGGTTALVTAGIGITPSLGLMRGAELSGTEKIKLFHVDRDHRTACLWDRLQKRAHSRQIPVETHHRDTASQGRPGHADLVDWLAGCDNVMVCGPADFTRAVLDASAEAGVPAVHQEIFASPNTGMSEAIAQCSPAEVTLENSGTSFLWEPQQGTLLEALEARGLRADNSCRGGSCGTCAVSLAAGSVIYPVEPAARIAADEVLVCSAVPSGPISLGILEHHHHHH	failed
MALQTEQFNANILRNGEWVESRTGERISISAPASGVALGSIPALSQEEVNDAIQGAKDAQKIWKIRPIHERVDLLYAWADLLEERKEIIGELIMHEVAKPKKSAIGEVSRTADIIRHTADEALRLNGETLKGDQFKGGSSKKIALVEREPLGVVLAISPFNYPVNLAAAKIAPALVTGNTVVFKPATQGSLSGIKMVEALADAGAPEGIIQVVTGRGSVIGDHLVEHPGIDMITFTGGTTTGERISEKAKMIPVVLELGGKDPAIVLDDADLKLTASQIVSGAFSYSGQRCTAIKRVFVQDSVADQLVANIKELVEQLTVGSPEDDADITPVIDEKSAAFIQGLIDDALENGATLLSGNKRQGNLLSPTLLDDVTPAMRVAWEEPFGPVLPIIRVKDANEAISLSNQSDYGLQASIFTKDTDRAINIGKHLEVGTVHINAKTERGPDHFPFLGVKKSGLGVQGIKPSLLSMTRERVTVLNL	not failed
MKPAKVSLLHRLLQCLKQCVDCNTVNRFTAINIFVNILLISAVISFPYSAAAHGATQSGDQYSSFEELERNEDPASYRITEKNARVPMLIMAIHGGGIEPGTSEIANEVSKNYSLYLFEGLKSSGNTDLHITSTRFDEPAALAITASHQYVMSLHGYYSEDRDIKVGGTDRAKIRILVDELNRSGFAAEMLGTDDKYAGTHPNNIANKSLSGLSIQLEMSTGFRKSLFDRFTLKDRAATQNETFYRFTKLLTDFIHENYEEDGGDFPSAKIKHPLQV	failed
MSDAPTVVAYLGPAGTFTEEALYKFADAGVFGDGEIEQLPAKSPQEAVDAVRHGTAQFAVVAIENFVDGPVTPTFDALDQGSNVQIIAEEELDIAFSIMVRPGTSLADVKTLATHPVGYQQVKNWMATTIPDAMYLSASSNGAGAQMVAEGTADAAAAPSRAAELFGLERLVDDVADVRGARTRFVAVQAQAAVSEPTGHDRTSVIFSLPNVPGSLVRALNEFAIRGVDLTRIESRPTRKVFGTYRFHLDISGHIRDIPVAEALRALHLQAEELVFVGSWPSNRAEDSTPQTDQLAKLHKADEWVRAASEGRKLN	not failed
LRASEIMNRTLDLQIIMDDLLNLLLKEFKLDLAVIRLVDEKGVLRVRSYSGKGIAGIAGKDWEPEIETYIGEAFLSNRLQFVNDTQYMTKPLTRELMQKEGIKSFAHIPISRKGEPPFGILSVFSRTIVGLFNEPFLNLLESLAGQLAQAVKIVTEMEAKEREREEKERILLENA	not failed
MASSKQADPQTDARPLPQDFETALAELESLVSAMENGTLPLEQSLSAYRRGVELARVCQDRLAQAEQQVKVLEGDLLRPLDPAALDDE	not failed
MNKQIDLPIADVQGSLDTRHIAIDRVGIKAIRHPVVVADKGGGSQHTVAQFNMYVNLPHNFKGTHMSRFVEILNSHEREISVESFEEILRSMVSRLESDSGHIEMAFPYFINKSAPVSGVKSLLDYEVTFIGEIKHGNQYSFTMKVIVPVTSLCPCSKKISDYGAHNQRSHVTISVRTNSFIWIEDIIRIAEEQASCELYGLLKRPDEKYVTERAYNNPKFVEDIVRDVAEVLNHDDRIDAYIVESENFESIHNHSAYALIERDKRIR	not failed
MLYLAELLQGKNALITGAGRGIGRAVAIALAKEGVNVGLLARSEENLKAVAKEVEAEGVKAVIATADVSSYEEVTTAIETLKNGLGSIDILINNAGISKFGKFLELDVADWEKIIQVNLMGVYYATRAALPSMIEQQSGDIINISSTAGQKGAPVTSAYSASKFGVLGLTESLAMEVRKHNIRVTALTPSTVATDMAVDLGLTDGNPDKVMQAEDIAEFIVAQLKLNKRTFIKSAGLWSTNP	failed
MEIVYVYVKKRSEFGKQCNFSDRQAELNIDISPNPELAALYVERNPVDTGIQCSASMSEHEANTERFEMENCGVNHVEGGWPKDVNPQELEQTIRFRKKVEKDENYINAVMQLGSIMEHCIKQNNAIDIYEEYFDDEEAVEVTEEAPSAKTINVFRDPQEIKRTATHLSWHPDGNKKLAVAYSCLQFQRSPMGMSHDSYIWDLENPNRPEIALKPSSPLITLEYNPKDSHVLLGGCYNGQIACWDTRKGSLVAELSTIEFSHRDPVYGTIWLQSKTGTECFSASTDGQVMWWDIRKISEPTEVVIMDITRKEQLENALGAISLEFESTLETPFQMGRGLGCILSRRPELKQQNEKLEGKPLTLPSHHRVPVRLGFYPCFPTNKRGLGDTCRSWLSPSSWAQGTKLRLSVLVANAVEPVTAWAAFTHMQSLHTQEHTVSTLGRFYFMYKQISKILTRTLTGASSVLKVCDDPLFCLRVQDTGCLIACGSELGTTTLLEVSSSLSTLQRNERNIASSIFERETRREKILEARHREMRLKEKGKAEGRDDDQKEEETALDLDELVNKAEEEFFEVIFAELKRKEAEALKKKPKPKKASIEVEGEDELEDIAGEEEESGIIMGEDTGEDDMDEKNEGGAP	failed
MTGTSDDEEGKWKNRSTTLRRLGRQYSPDVTPEVASRRLKQWIVGNPVLLGLLHENGWTASRRVLTPKQVEQIVRVLGEP	failed
RGIAVYVEHHNGNIHPVTYELIGKAREMASKIKQPVYCVFVGKDIKDKCSNLISYGVDEVFVYDEDEFKDFRIEPYSKAIENFIDKIKPTIVLVGGTTLGRSLAPRLAARFRTGLTADCTILDIQSNTDLDQIRPAFGGNIMAHINTPNNRPQFATVRYKIFSAPEKIENTTGKITLCKVEKKELKSKIKVLS	not failed
ARNGDDCPLGPGRCCRLHTVRASLEDLGWADWVLSPREVQVTMCIGACPSQFRAANMHAQIKTSLHRLKPDTEPAPCCVPASYNPMVLIQKTDTGVSLQTYDDLLAKDCHCI	failed
MTAVFRNTVLVRFKHCDAAGIVFYPRYFEMLNDFIEDWFAQALDWPFDAMHGAGQAGVPTADLHCRFVAPSRLGETLTRELRVVKLGQSSFTVQVRFMGPDSGLRLEVTQRLVCVDTDKIAPRPLPDPVRQAMATYVDETLAATGSPGL	not failed
MKGKVVSYLAAKKYGFIQGDDGESYFLHFSELLDKKDEGKLVKGSMVHFDPTPTPKGLAAKAISLPLEHHHHHH	not failed
